Residue numbers refer to the chain shown, from its start. Names may count otherwise.
T1: recombinant cynomolgus monkey PD-1 expressed with a C-terminal myc-myc-hexahistidine tag (cynomolgus monkey (Macaca fascicularis))
T1 construct: monomeric; also called MfPD-1-MMH
T1 chain: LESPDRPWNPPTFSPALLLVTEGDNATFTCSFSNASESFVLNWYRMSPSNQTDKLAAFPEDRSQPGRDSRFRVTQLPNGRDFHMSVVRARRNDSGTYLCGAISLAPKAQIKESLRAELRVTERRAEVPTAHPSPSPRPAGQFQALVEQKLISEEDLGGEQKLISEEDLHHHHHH

B1: H2aM7796N (antibody, mouse IgG2a, V domains shown)
VH: QVQLVESGGGVVQPGRSLRLSCAASGFTFSSYGMHWVRQAPGKGLEWVAIIWSDGDSEYNLDSVKGRFTISRDNSKNTLYLQMNSLRVEDSAVYYCARDRDLEDIWGQGTMVTVSS
VL: DIQMTQSPSSLSASVGDRVTITCRASQGIRNDLGWYQQKPGKAPKRLIYAASNLQSGVPSRFSGSGSGTEFTLTISSLQPEDFATYYCLQHNSYPLTFGGGTKVEIK
notes: Human variable regions, mouse IgG2a Fc; also called H2M7796N
B2: H2aM7780N (antibody, mouse IgG2a, V domains shown)
VH: QVQLVESGGGVVQSGRSLRLSCAASGFTFSSYGMHWVRQAPGKGLEWVAVIWYDGSNIYYSDSVKGRFTISRANSKNTLYLQMNSLRAEDTAVYYCARPGHWNYFFEYWGQGTLVTVSS
VL: DIQMTQSPSSLSASVGDRVTITCRASQSINNYLNWYQQKPGKAPKLLIYTASSLQSGVPSRFSGSGSGTDFTLTISSLQPEDFATYYCQQSYSTPPLTFGQGTQLEIK
notes: Human variable regions, mouse IgG2a Fc (H2aM prefix); also called H2M7780N
B3: H4xH8992P (antibody, V domains shown)
VH: EVQLVESGGGLVQPGRSLRLSCVASGFALHDYAMHWVRQVPGKGLEWVSSISWNSGVIGYADSLKGRFTISRDNAKNSLYLQMNSLRAEDTALYYCAKGSGSYYVSWFDPWGQGTLVTVSS
VL: not shown
notes: Human IgG4 Fc with 2 or more amino acid changes (H4xH)
B4: H2aM7788N (antibody, mouse IgG2a, V domains shown)
VH: EVQLVESGGGLVQPGGSLRLSCGASGFTFRNYDMHWVRQITGKGLEWVSAIGSAGDTYYPDSVKGRFTISRENAKNSLYLQMNSLRVGDTAVYYCTRDIHCSSTRCYGMDVWGQGTTVTVSS
VL: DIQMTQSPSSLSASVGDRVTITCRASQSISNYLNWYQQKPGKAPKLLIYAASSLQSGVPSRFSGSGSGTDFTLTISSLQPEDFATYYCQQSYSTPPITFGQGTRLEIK
notes: Human variable domains, mouse IgG2a Fc; also called H2M7788N
B5: H1M7800N (antibody, mouse IgG1, V domains shown)
VH: EVQLVESGGGLVQPGGSLRLSCAASGFTVSNNYMSWVRQAPGKGLEWVSVIYSGGFTYYTDSVKGRFTISRHNSKNTLYLQMNSLRAEDTAVYYCARYYYDTSDYWTFFDYWGQGTLVTVSS
VL: EIVMTQSPATLSVSPGERATLSCRASQSVSSNLAWYQQKPGQAPRLLIYGASTRATGIPARFSGSGSGTEFTLTISSLQSGDFAVYYCQQYNNWPLTFGGGTKVEIN
notes: Human variable domains, mouse IgG1 Fc
B6: H4xH9034P (antibody, V domains shown)
VH: EVQLVESGGGVVRPGGSLRLSCTASGFTFDDYGMSWVRQAPGKGLEWISGIGWTGGRSSYADSVRGRFTISRDNAKNSLYLQMNSLGAEDTALYYCARDRQWLVQWYFDYWGQGTLVTVSS
VL: not shown
notes: Human IgG4 Fc with 2 or more amino acid changes as in US20100331527 (H4xH prefix); also called H4xH9034P2
B7: H4xH8992P (antibody, human IgG4, V domains shown)
VH: B3 VH
VL: not shown
notes: H4xH: modified human IgG4 Fc
B8: H2aM7791N (antibody, mouse IgG2a, V domains shown)
VH: QMQLQQWGAGLLKPSETLSLTCVVYGGSLNGYYWSWIRQSPGKGLEWIGEIDHSGSTNYNPSLKNRVTMSVDTSKIQFSLKLTSVTVADTAVYYCAREGLLPFDYWGQGTLVTVSS
VL: EIVLTQSPGTLSLSPGERVTLSCRASQSVYSNYLAWYQQNPGQAPRLLIYAASNRATGIPDRFSGSGSGTDFTLTISRLEPEDFAVYYCHQYATSPWTFGQGTKVEIK
notes: Human variable domains, mouse IgG2a Fc; also called H2M7791N
B9: H4H9019P (antibody, human IgG4, V domains shown)
VH: EVQLVESGGGVVRPGGSLRLSCAASGFTFDDYGMSWVRQVPGKGLEWVSGISWNDGKTVYAESVKGRFIISRDNAKNSLYLEMNSLRAEDTALYYCARDWQYLIERYFDYWGQGTLVTVSS
VL: not shown
notes: Fully human, human IgG4 Fc (H4H prefix)
B10: H4xH9035P (antibody, human IgG4, V domains shown)
VH: B9 VH with G10R, V40L, S49A, Y80H, E105D, Y110F
VL: not shown
notes: H4xH: modified human IgG4 Fc; also called H4xH9035P2
B11: H2aM7780N (antibody, mouse IgG2a, V domains shown)
VH: B2 VH
VL: B2 VL
notes: also called H2M7780N
B12: H1M7789N (antibody, mouse IgG1, V domains shown)
VH: EVQLLESGGGLVQPGGSLRLSCSASGFTFSSYTMNWVRQAPGKGLEWVSGISDTGGNTYYTDSVKGRFTVSRDNSKNTLSLQMNSLRAEDTAVYYCAKDQGGSYPYYFHYWGQGSLVTVSS
VL: B2 VL with N30S, N31S, N34I, K42T, L46F, T50A, S65C, L97I, Q104R
notes: Human variable domains, mouse IgG1 Fc (H1M prefix)
B13: H4xH9037P (antibody, human IgG4, V domains shown)
VH: EVQLVESGGGLVQPGGSLRLSCAASGFTFDDYAMHWVRQAPGKGLEWVSGIGWSSGSIGYADSVKGRFTISRDNAKNSLYLQMDSLRPEDSALYYCAKAYTFMITLYFDYWGQGTLVTVSS
VL: not shown
notes: H4xH: modified human IgG4 Fc; also called H4xH9037P2
B14: H4xH9120P2 (antibody, human IgG4, V domains shown)
VH: QVQLVQSGAEVKRPGASVKVSCKASGYTFTSFYMYWVRQAPGQGLEWMGIINPSDGSTSNAQKFQGRVTMTRDTSTSTVYMELSSLRSEDTAVYYCARRVAGDIFDIWGQGTMVTVSS
VL: not shown
notes: H4xH: modified human IgG4 Fc
B15: H2aM7794N (antibody, V domains shown)
VH: QLQLQESGPDLVKPSDTLSLTCTVSDDSISSTTYYWAWIRQPPGKGLEWIGSMSYNGNNYYNPSLKSRVAISAGTSQKQFSLKLTSVTAADTAVYHCARHLGYNGNWYPFDFWGQGILVTVSS
VL: not shown
notes: Human variable domains, mouse IgG2a Fc; also called H2M7794N
B16: H4xH9135P2 (antibody, human IgG4, V domains shown)
VH: EVQLVESGGSVVRPGGSLRLSCVVSGFTFEDYGLSWVRQIPGKGLEWVSGISWTGGNTGYADSVKGRFTISRDNAKNSLYLQMNSLRAEDTALYHCTRDRQWLMQWYFDYWGQGTLVTVSS
VL: not shown
notes: H4xH: modified human IgG4 Fc
B17: H4xH9145P2 (antibody, human IgG4, V domains shown)
VH: QVQLVESGGGVVQPGRSLRLSCSASGFTFSAYAMHWVRQAPGKGLEWVAAISYGGSDKYYADSVKGRFTISRDNSKNTLYLQMNSLRTDDTAVYYCAKSAHWNFFFDYWGQGTLVTVSS
VL: not shown
notes: H4xH: modified human IgG4 Fc
B18: H4H7795N2 (antibody, human IgG4 S228P, kappa, V domains shown)
VH: EVQVVESGGGLVEPGRSLRLSCKASGFTFDDYAMHWVRQTPGKALEWVSGISWSGNNIGYADSVKGRFTISKDDAKNSLYLQMNSLRPEDTALYYCTKDISITGTLDAFDVWGQGTMVTVSS
VL: DIQMTQSPISVSASVGDRVTITCRASQGISNWLAWYQQKPGIAPKLLIYSASSLQSGVPSRFRGSGSGTDFTLTIGSLQPEDFATYYCQQAHSFPLTFGGGTKVEIKR
B19: H2aM7795N (antibody, mouse IgG2a, V domains shown)
VH: B18 VH with S52N
VL: DIQMTQSPISVSASVGDRVTITCRASQGISNWLAWYQQKPGIAPKLLIYSASSLQSGVPSRFRGSGSGTDFTLTIGSLQPEDFATYYCQQAHSFPLTFGGGTKVEIK
notes: Human variable domains, mouse IgG2a Fc; also called H2M7795N
B20: H4xH9128P2 (antibody, human IgG4, V domains shown)
VH: QVQLQESGPGLVKPSETLSLTCTVSGGSISSYHWNWIRQSPGKGLEWIGYIYYIGSTDYNPSLESRVTISVDTSKNQFSLKLSSVTAADTAVYYCARVPVGATGASDVWGQGTMVTVSS
VL: not shown
notes: H4xH: modified human IgG4 Fc

biological target: T2, recombinant human PD-1 expressed with a C-terminal myc-myc-hexahistidine tag (human); assay: SPR, mAb captured, 37C;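 further: rate constants from fitting sensorgrams to a 1:1 binding model, KD derived as kd divided by ka and half-life as ln2/(60·kd)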
T2 construct: monomeric; also called hPD-1-MMH; human PD-1-MMH

| Binder | Kd | koff | kon | t½ |
| --- | --- | --- | --- | --- |
| B1 | 1510 nM | 0.0165 s⁻¹ | 10900 M⁻¹ s⁻¹ | 0.7 min |
| B2 | 55.8 nM | 0.00152 s⁻¹ | 27200 M⁻¹ s⁻¹ | 7.6 min |

biological target: T3, human PD-1 dimer (human PD-1-mFc or human PD-1-hFc) (human, UniProt Q15116 25-170); assay: SPR, mAb captured, 25C;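 further: surface plasmon resonance on Biacore, PD-1 flowed over captured anti-PD-1 antibodies, rate constants from a 1:1 binding model fit, KD taken as kd/ka and t½ as ln2/(60·kd)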
T3 construct: also called hPD-1-mFc; hPD1-hFc
T3 sequence (Q15116 25-170 C93S): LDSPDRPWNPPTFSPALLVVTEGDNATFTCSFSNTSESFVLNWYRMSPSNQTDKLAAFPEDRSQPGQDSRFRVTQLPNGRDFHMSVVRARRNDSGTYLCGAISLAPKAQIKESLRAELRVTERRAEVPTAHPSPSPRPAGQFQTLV

| Binder | Kd | koff | kon | t½ |
| --- | --- | --- | --- | --- |
| B1 | 3.32 nM | 8.67e-05 s⁻¹ | 26100 M⁻¹ s⁻¹ | 133 min |
| B3 | 0.68 nM | – | – | 72 min |
| B2 | 0.236 nM | 9.94e-06 s⁻¹ | 42100 M⁻¹ s⁻¹ | 1160 min |

biological target: T3, human PD-1 dimer (human PD-1-mFc or …); assay: SPR, mAb captured, 37C

| Binder | Kd | koff | kon | t½ |
| --- | --- | --- | --- | --- |
| B1 | 19.6 nM | 0.000434 s⁻¹ | 22100 M⁻¹ s⁻¹ | 27 min |
| B3 | 2.91 nM | – | – | 11 min |
| B2 | 0.23 nM | 2.29e-05 s⁻¹ | 99400 M⁻¹ s⁻¹ | 505 min |

Biological target: T1, recombinant cynomolgus monkey PD-1 …
Assay: SPR, mAb captured, 25C;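 further: rates from fitting Biacore data for PD-1 binding to anti-PD-1 antibodies with a 1:1 model, KD computed as koff/kon and t½ as ln2/(60·koff)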

| Binder | binding result | Kd | t½ | koff | kon |
| --- | --- | --- | --- | --- | --- |
| B1 | no binding (tested: up to 200 nM) | – | – | – | – |
| B3 | – | 200 nM | 0.3 min | – | – |
| B2 | – | 31.5 nM | 37 min | 0.000315 s⁻¹ | 10000 M⁻¹ s⁻¹ |

Biological target: T1, recombinant cynomolgus monkey PD-1 …
Assay: SPR, mAb captured, 37C

| Binder | Kd | koff | kon | t½ |
| --- | --- | --- | --- | --- |
| B2 | 60.5 nM | 0.00138 s⁻¹ | 22900 M⁻¹ s⁻¹ | 8.3 min |

biological target: T4, recombinant human PD-1 expressed with a C-terminal myc-myc-hexahistidine tag (human); assay: SPR (Biacore), mAb captured, hPD-1-MMH injected, 25 C;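 further: rate constants obtained by fitting sensorgrams to a 1:1 binding model, KD derived as kd/ka and half-life as ln2/(60·kd) in minutes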
T4 construct: also called hPD-1-MMH; human PD-1-MMH

| Binder | Kd | koff | kon | t½ |
| --- | --- | --- | --- | --- |
| B4 | 19.6 nM | 0.000388 s⁻¹ | 19700 M⁻¹ s⁻¹ | 30 min |
| B5 | 161 nM | 0.00947 s⁻¹ | 58800 M⁻¹ s⁻¹ | 1.2 min |
| B6 | 14.5 nM | 0.00149 s⁻¹ | 102000 M⁻¹ s⁻¹ | 7.8 min |
| B7 | 141 nM | – | – | 0.5 min |
| B8 | 23.4 nM | 0.000706 s⁻¹ | 30100 M⁻¹ s⁻¹ | 16 min |
| B9 | 39.4 nM | – | – | – |
| B10 | 4.62 nM | 0.000475 s⁻¹ | 103000 M⁻¹ s⁻¹ | 24 min |
| B11 | 38.5 nM | 0.000359 s⁻¹ | 9320 M⁻¹ s⁻¹ | 32 min |
| B12 | 2.1 nM | 5.31e-05 s⁻¹ | 25300 M⁻¹ s⁻¹ | 218 min |
| B13 | 10.9 nM | 0.000795 s⁻¹ | 73200 M⁻¹ s⁻¹ | 15 min |
| B14 | 30.1 nM | 0.000998 s⁻¹ | 33200 M⁻¹ s⁻¹ | 12 min |
| B15 | 38 nM | 0.00212 s⁻¹ | 55000 M⁻¹ s⁻¹ | 5.4 min |
| B16 | 10.2 nM | 0.0012 s⁻¹ | 117000 M⁻¹ s⁻¹ | 10 min |
| B17 | 38.5 nM | 0.00134 s⁻¹ | 34700 M⁻¹ s⁻¹ | 8.6 min |
| B18 | 23.3 nM | 0.00148 s⁻¹ | 63500 M⁻¹ s⁻¹ | 8 min |
| B19 | 23.5 nM | 0.00115 s⁻¹ | 49100 M⁻¹ s⁻¹ | 10 min |
| B20 | 14.5 nM | 0.000719 s⁻¹ | 49500 M⁻¹ s⁻¹ | 16 min |

From US20150203579A1 (Regeneron, published 2015)
